# Experimental data taken from article PMC10560287.
# Target: GmILPA1-cYFP (soybean (Glycine max))
# Experiment: split reporter (BiFC, NanoBiT); BiFC with nYFP and cYFP fusions co-infiltrated into N. benthamiana leaves together with P19; confocal microscopy; leaves in white light or exposed to 1 h of UV-B (21 μmol m^-2 s^-1)
# Chain of GmILPA1-cYFP (soybean (Glycine max)) (main, as listed by the source): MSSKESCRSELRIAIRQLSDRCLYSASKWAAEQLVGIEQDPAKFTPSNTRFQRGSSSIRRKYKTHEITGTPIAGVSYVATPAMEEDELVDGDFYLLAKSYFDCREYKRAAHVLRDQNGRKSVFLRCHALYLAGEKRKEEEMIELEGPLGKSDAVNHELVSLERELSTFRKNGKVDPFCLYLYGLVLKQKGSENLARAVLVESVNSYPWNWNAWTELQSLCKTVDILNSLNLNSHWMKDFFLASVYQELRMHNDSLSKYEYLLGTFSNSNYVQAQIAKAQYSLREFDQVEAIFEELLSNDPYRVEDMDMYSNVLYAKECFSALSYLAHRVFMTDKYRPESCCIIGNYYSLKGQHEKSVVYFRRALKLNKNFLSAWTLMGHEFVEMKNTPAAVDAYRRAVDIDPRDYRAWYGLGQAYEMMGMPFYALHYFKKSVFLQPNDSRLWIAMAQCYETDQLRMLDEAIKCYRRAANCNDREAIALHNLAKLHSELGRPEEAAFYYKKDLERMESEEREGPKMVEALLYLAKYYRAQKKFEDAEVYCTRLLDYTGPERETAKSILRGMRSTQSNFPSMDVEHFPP
substance,measurement,value
GmGA2ox-like-nYFP (enzyme),"fold change of the relative BiFC fluorescence intensity in the cytoplasm, UV-B against white light",3 fold
